The values below come from PMC8239462 (The Journal of Biological Chemistry, 2021).

“And” between values parts separate entries of the source, which are not always exact repeats. Identical values can stand only once. Like-named read-outs stand apart in the source and are kept apart here.

Common to all, as to assay: SPR
On the technique in general: Surface plasmon resonance follows binding to a sensor surface in real time, without labels.

Assay [1] deals with T1, LRP1 cluster II (CR.3–10), recombinant, secreted from Sf9 cells (human, UniProt Q07954 852-1182).
T1 sequence: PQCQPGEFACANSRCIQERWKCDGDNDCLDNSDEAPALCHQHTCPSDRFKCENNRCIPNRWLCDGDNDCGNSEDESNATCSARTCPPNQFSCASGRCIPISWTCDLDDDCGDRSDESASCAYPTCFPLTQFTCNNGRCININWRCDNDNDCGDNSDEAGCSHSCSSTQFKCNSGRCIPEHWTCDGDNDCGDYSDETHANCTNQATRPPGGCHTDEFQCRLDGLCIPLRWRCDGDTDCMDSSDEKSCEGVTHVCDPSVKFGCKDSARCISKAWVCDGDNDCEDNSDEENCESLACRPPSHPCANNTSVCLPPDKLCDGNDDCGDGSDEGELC

Assay [2] has as its target LRP1 cluster IV (CR.21–31), recombinant, secreted from Sf9 cells (human, UniProt Q07954 3332-3778).
The target in assay [3] is T1, LRP1 cluster II (CR.3–10), recombinant, …. This is another data set of the same source.
Assay [4] has the same target. This is another data set of the same source.

Sequence of LRP1 cluster IV (CR.21–31), recombinant, secreted from Sf9 cells (Q07954 3332-3778): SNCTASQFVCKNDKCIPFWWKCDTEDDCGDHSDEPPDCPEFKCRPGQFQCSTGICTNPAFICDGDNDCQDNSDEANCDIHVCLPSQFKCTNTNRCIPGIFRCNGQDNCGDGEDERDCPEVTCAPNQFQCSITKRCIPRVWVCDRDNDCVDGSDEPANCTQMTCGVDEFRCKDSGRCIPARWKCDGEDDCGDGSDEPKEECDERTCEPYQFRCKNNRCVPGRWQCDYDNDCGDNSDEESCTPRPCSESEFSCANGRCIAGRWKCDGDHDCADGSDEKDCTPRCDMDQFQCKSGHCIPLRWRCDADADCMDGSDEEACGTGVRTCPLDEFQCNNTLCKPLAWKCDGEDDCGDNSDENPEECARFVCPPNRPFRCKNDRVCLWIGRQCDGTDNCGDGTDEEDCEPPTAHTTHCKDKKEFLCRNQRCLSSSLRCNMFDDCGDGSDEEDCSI

B1: RAP (commercial; R&D, 4296-LR) (natural protein, human)
chain: YSREKNQPKPSPKRESGEEFRMEKLNQLWEKAQRLHLPPVRLAELHADLKIQERDELAWKKLKLDGLDEDGEKEARLIRNLNVILAKYGLDGKKDARQVTSNSLSGTQEDGLDDPRLEKLWHKAKTSGKFSGEELDKLWREFLHHKEKVHEYNVLLETLSRTEEIHENVISPSDLSDIKGSVLHSRHTELKEKLRSINQGLDRLRRVSHQGYSTEAEFEEPRVIDLWDLAQSANLTDKELEAFREELKHFEAKIEKHNHYQKQLEIAHEKLRHAESVGDGERVSRSREKHALLEGRTKELGYTVKKHLQDLSGRISRARHNEL
Turning to B1, the Kd in assay [1] was 2.66 nM; in assay [2] it was 1.4 nM; in assay [3], 1.97 nM and 2.4 nM; in assay [4], 1.67 nM and 1.2 nM.

For orientation: Kd means the constant that tells how readily two partners part at equilibrium.
